Results published in patent publication US10844127 (MERUS N V, dated 2020).
Numbering of substitutions follows the chain as printed. Read-outs that look alike come from different tables or passages of the source.

T1: CHO-delta III
T1 construct: also called EGFR HER3 swap varIII ECD; domain III swap mutant
T1 chain: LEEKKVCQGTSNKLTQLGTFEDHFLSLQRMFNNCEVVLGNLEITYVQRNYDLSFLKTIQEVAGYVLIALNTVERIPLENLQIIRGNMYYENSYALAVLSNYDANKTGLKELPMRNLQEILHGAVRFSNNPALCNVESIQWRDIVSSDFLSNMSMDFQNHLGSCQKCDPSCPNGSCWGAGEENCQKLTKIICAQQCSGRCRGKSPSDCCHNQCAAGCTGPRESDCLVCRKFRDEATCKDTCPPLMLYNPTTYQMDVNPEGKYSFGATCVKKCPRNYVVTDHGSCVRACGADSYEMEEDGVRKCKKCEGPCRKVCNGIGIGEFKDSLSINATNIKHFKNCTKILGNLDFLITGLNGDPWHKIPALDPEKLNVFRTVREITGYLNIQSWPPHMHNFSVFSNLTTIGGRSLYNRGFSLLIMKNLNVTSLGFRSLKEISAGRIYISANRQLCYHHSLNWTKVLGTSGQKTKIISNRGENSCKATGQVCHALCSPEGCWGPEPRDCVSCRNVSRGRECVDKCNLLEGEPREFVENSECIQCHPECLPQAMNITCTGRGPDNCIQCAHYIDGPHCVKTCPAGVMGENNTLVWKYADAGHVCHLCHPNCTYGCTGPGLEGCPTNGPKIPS

B1: PG4289 (antibody, IgG1, V domains shown)
VH: QVQLVQSGSELKKPGASVKVSCKTSGYTFTDYAMTWVRQAPGQGLEWMGWITTNTGDPTYAPGFTGRFVFSLDTSVSTAYLQISSLKAEDTAVYYCARVYHWIRGFEFWGQGTLVTVSS
VL: not shown
notes: Mono-specific bivalent full length IgG1 with the common light chain; also called MF4289; MG4289
B2: PG4003 (antibody, IgG1, V domains shown)
VH: QVQLVQSGSELKKPGASVKVSCKASGYTFPSFAMNWLRQAPGQGLEWMGWITTNTGDPTYAQGFSGRFVFSLDTSVSTAYLQISSLKAEDTAVYYCARVYNWIRGFDYWGQGTLVTVSS
VL: not shown
notes: Mono-specific bivalent full length IgG1 with the common light chain; also called MF4003; MG4003
B3: PG3998 (antibody, IgG1, V domains shown)
VH: QVQLVQSGSELKKPGASVKVSCKASGYTFTNNAINWVRQAPGQGLEWMGWINTITGDPTYAQGFTGRFVFSLDTSVSTAYLQISSLKAEDTGVYYCAREEFLEWLFFDYWGQGTLVTVSS
VL: not shown
notes: Mono-specific bivalent full length IgG1 with the common light chain, from 293F cells; also called MF3998; MG3998
B4: PG4010 (antibody, IgG1, V domains shown)
VH: B3 VH with I34M, T59S, S77N, G92A
VL: not shown
notes: Mono-specific bivalent full length IgG1 with the common light chain; also called MF4010; MG4010
B5: PG4280 (antibody, IgG1, V domains shown)
VH: QVQLVQSGAEVKKPGASVKVSCKVSGYTLTELSMHWVRQAPGKGLEWMGGFDPEYGKTFFAQNFQGRVTMTEDTSADTAYMELSSLRSEDTAVYYCATEGYYETTTYYYNLFDSWGQGTLVTVSS
VL: not shown
notes: Mono-specific bivalent full length IgG1 with the common light chain; also called MF4280; MG4280

What was measured:
[1] = biological target: T2, human EGFR ECD-Fc fusion protein (R&D Systems) (human, UniProt P00533 25-645); assay: phage ELISA, Fab on phage, immobilized EGFR, with competitor EGFR.1 (Domain II)
T2 construct: extracellular domain; also called rhEGFR-Fc; EGFR-Fc; not shown: Fc part of the bought fusion protein, not described

[2] = biological target: T3, chimeric cynomolgus-human EGFR (cynomolgus ECD, human trans-membrane …, UniProt P55245 25-1210 (rhesus entry)); assay: FACS, CHO cells transfected with chimeric cynomolgus/human EGFR, IgG at 5 µg/ml
T3 construct: also called cynomolgus EGFR; chimeric cyno-human receptor

human EGFR, full length [3] = biological target: T4, human EGFR, full length (human, UniProt P00533 25-1210); assay: cell-based or functional assay
[4] = biological target: T2, human EGFR ECD-Fc fusion protein (R&D …); assay: phage ELISA, Fab on phage, immobilized EGFR, with competitor Cetuximab (Domain III)
[5] = biological target: T2, human EGFR ECD-Fc fusion protein (R&D …); assay: phage ELISA, Fab on phage, immobilized EGFR, with competitor ICR10 (Domain I)
[6] = biological target: T2, human EGFR ECD-Fc fusion protein (R&D …); assay: phage ELISA, Fab on phage, immobilized EGFR, no IgG
[7] = biological target: T2, human EGFR ECD-Fc fusion protein (R&D …); assay: phage ELISA, Fab on phage, immobilized EGFR, with competitor MatuzuMab (Domain III)
CHO-delta II = biological target: T5, CHO-delta II; assay: FACS on CHO cells expressing the domain II swap mutant (CHO-delta II)
T5 construct: also called EGFR HER3 swap varII ECD; domain II swap mutant

human EGFR, full length [8] = biological target: T4, human EGFR, full length; assay: FACS on CHO cells stably expressing wtEGFR (CHO-wtEGFR)
CHO-vIII = biological target: T6, CHO-vIII (human, UniProt P00533); assay: FACS on CHO cells expressing EGFR variant III (CHO-vIII)
T6 construct: expressed on CHO cells; also called EGFR variant III

[9] = biological target: T3, chimeric cynomolgus-human EGFR; assay: FACS, CHO cells transfected with chimeric cynomolgus/human EGFR, IgG at 5 µg/ml; remark: listed apart in the source
CHO-delta IV = biological target: T7, CHO-delta IV; assay: FACS on CHO cells expressing the domain IV swap mutant (CHO-delta IV)
T7 construct: also called EGFR HER3 swap varIV ECD; domain IV swap mutant

CHO-delta III = biological target: T1, CHO-delta III; assay: FACS on CHO cells expressing the domain III swap mutant (CHO-delta III)
[10] = biological target: T8, mouse EGFR ECD fused to human IgG1 Fc (Sino Biologicals cat. nr. 51091-M02H) (mouse; human, UniProt Q01279 25-647); assay: ELISA on coated mouse EGFR ECD-human IgG1 Fc
T8 construct: extracellular domain; also called murine EGFR; not shown: human IgG1 Fc

Row | Binder | OD [1] | binding result [2] | EGFR blocking activity compared to cetuximab (inhibition of EGF-induced cell death of A431 cells) (human EGFR, full length [3]) | OD [4] | OD [5] | OD [6] | OD [7] | binding result (CHO-delta II) | binding result (human EGFR, full length [8]) | binding result (CHO-vIII) | binding result [9] | binding result (CHO-delta IV) | binding result (CHO-delta III) | binding result [10]
1 | B1 | 2.23 | binds | 80% | 2.22 | 2.05 | 2.28 | 2.36 | – | – | – | – | – | – | –
2 | B2 | – | – | – | – | – | – | – | binds | binds | no binding | binds | binds | binds | –
3 | B3 | 2.34 | binds | > 100% | 0.101 | 2.23 | 2.49 | 0.671 | – | – | – | – | – | – | –
4 | B4 | – | – | – | – | – | – | – | binds | binds | – | binds | binds | no binding | –
5 | B5 | 2.13 | binds | 100% | 1.14 | 2.3 | 2.55 | 0.613 | – | – | – | – | – | – | no binding (tested: 5 µg/ml)
